Assay results taken from patent US20240010742A1 (RESEARCH DEVELOPMENT FOUNDATION, published 2024).
Substitutions are numbered along the chain they refer to. Each block holds one binder with its values, some of them ahead of it.

Columns and labels:
FcγRIIaR131 [1] = biological target: T1, FcγRIIaR131 (human, UniProt P12318 36-218, limits assumed, biotinylated (BLI, beads)); test: flow cytometry: hexameric Fc on FcγR-coated beads; mean fluorescence intensity
T1 construct: also called FcgRIIaR131; 2aR
T1 sequence (looked up): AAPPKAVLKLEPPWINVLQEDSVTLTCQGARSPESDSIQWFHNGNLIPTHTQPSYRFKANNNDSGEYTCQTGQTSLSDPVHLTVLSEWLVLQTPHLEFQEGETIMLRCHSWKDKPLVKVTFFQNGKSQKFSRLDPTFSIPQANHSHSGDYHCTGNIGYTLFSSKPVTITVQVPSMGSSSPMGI

FcγRIIaH131 [2] = biological target: T2, FcγRIIaH131 (human, UniProt P12318 36-218, limits assumed, biotinylated (BLI, beads)); test: as above
T2 construct: also called FcgRIIaH131
T2 sequence (looked up): T1 sequence (looked up) with R132H

FcγRIIIaV158 [3] = biological target: T3, FcγRIIIaV158 (human, UniProt P08637 17-208, biotinylated (BLI, beads)); test: as above
T3 construct: also called FcgRIIIaV158; 3aV

FcgRIIIbNA2 [4] = biological target: T4, FcgRIIIbNA2 (human, UniProt O75015 17-200, limits assumed); test: as above
T4 construct: also called FcγRIIIb

FcγRIIb = biological target: T5, FcγRIIb (human, UniProt P31994 46-217, limits assumed, biotinylated (BLI, beads)); test: flow cytometry: hexameric Fc on FcγR-coated beads; y axis = mean fluorescence intensity
T5 construct: Recombinant receptor on biosensors, SPR or beads; also called FcgRIIb; 2b
T5 sequence (looked up): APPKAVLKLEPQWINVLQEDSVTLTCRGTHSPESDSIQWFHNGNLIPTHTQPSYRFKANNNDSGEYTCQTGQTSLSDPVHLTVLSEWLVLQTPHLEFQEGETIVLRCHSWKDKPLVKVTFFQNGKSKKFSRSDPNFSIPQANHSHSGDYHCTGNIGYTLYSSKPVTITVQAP

FcγRI = biological target: T6, FcγRI (human, UniProt P12314 16-288, limits assumed, biotinylated (BLI, beads)); test: as above
T6 construct: Recombinant receptor; also called FcgRI

[5] = biological target: T7, FcγRIIb on cells (Raji cells; THP-1 cells) (human, UniProt P31994 43-310); test: flow cytometry: hexameric Fc on Raji cells (only FcγR2b among Fc receptors), 40 to 0.039 ug/ml; upper panel fluorescence intensity (axis without title), lower panel percent positive; last bar of each group = Ramos cells at 40 ug/ml
T7 construct: whole, on cells; also called FcγR2b; FcgR2b
T7 sequence (looked up): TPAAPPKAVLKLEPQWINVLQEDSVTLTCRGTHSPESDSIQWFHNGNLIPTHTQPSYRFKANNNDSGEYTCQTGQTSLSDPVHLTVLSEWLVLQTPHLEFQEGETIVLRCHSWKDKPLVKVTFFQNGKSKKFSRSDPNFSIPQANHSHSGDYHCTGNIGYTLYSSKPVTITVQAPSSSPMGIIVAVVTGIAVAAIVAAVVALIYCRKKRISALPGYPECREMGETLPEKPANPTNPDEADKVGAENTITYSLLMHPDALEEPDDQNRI
Experimental: Error bars are standard error of the mean of triplicate samples. Statistical analysis was performed by one way ANOVA with Tukey s multiple comparisons test (***P 0.001, ****P 0.0001). […] The cell binding of hexameric Fc was tested with Raji cell which expresses only FcγR2b among Fc receptors (FIG. 13).

FcγRIIaH131 [6] = biological target: T2, FcγRIIaH131; test: flow cytometry: hexameric Fc ('Hex 2b18KQS-1') on FcγR-coated beads; mean fluorescence intensity
FcγRIIIaV158 [7] = biological target: T3, FcγRIIIaV158; test: as above
FcgRIIIbNA2 [8] = biological target: T4, FcgRIIIbNA2; test: as above
FcγRIIaR131 [9] = biological target: T1, FcγRIIaR131; test: flow cytometry: hexameric Fc on FcγR-coated beads; y axis = mean fluorescence intensity

T4 sequence (O75015 17-200 limits assumed): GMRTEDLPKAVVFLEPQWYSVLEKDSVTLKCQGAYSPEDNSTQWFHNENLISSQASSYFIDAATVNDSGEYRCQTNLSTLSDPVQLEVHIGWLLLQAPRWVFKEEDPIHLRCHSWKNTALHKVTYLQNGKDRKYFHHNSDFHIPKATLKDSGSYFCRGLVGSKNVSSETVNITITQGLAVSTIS
T3 sequence (P08637 17-208 F176V limits assumed): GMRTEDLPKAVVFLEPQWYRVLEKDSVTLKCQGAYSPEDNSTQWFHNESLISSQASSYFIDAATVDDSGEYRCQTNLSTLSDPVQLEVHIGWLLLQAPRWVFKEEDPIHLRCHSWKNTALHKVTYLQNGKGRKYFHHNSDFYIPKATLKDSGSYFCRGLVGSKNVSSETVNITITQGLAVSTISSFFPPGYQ
T6 sequence (P12314 16-288 limits assumed): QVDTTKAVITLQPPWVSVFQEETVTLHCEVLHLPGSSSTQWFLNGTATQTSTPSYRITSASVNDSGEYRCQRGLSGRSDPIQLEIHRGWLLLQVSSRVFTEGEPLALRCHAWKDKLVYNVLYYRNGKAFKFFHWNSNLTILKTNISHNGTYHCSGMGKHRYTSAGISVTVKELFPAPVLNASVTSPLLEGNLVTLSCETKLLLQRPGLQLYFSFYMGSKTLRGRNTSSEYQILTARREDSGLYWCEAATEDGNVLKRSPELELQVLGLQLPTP

binding result (FcγRIIaR131 [1]): no binding
binding result (FcγRIIaH131 [2]): no binding
binding result (FcγRIIIaV158 [3]): no binding
binding result (FcgRIIIbNA2 [4]): no binding
binding result (FcγRIIb): binds
binding result (FcγRI): binds
binding result [5]: binds
B1: Hex 2b18KQS-ST (glycosylated version of Hex 2b18KQS) (Fc fusion)
chain: EPKSCDKTHTCPPCPAPVDFRDPLVFLFPPKPKDTLMISRTPEVTCVVVDVSPEDPEVKFNWYVDGVEVHNAKTKPQEEQYNSTYRVVSVLTVCHQDWLNGKEYKCKVSNKLAPHPIIKTISKAKGQPREPQVYTLPPSRDELTKNQVSLTCLVKGFYPSDIAVEWESNGQPENNYKTTPPVLDSDGSFFLYSKLTVDKSRWQQGNVFSCSVMHEALHNHYTQKSLSLSPGKPTLYNVSLVMSDTAGTCY
notes: Ser298/Thr299 restored (glycosylated); forms a hexamer of Fc; also called glycosylated Hex 2b18KQS-ST Fc; hexameric 2b18KQS-ST Fc

binding result (FcγRIIaH131 [6]): no binding
binding result (FcγRIIIaV158 [7]): no binding
binding result (FcgRIIIbNA2 [8]): no binding
binding result (FcγRIIaR131 [9]): binds
binding result (FcγRIIb): binds
binding result [5]: binds
B2: Hex 2b18KQS (aglycosylated hexameric Fc) (Fc fusion)
chain: B1 chain with S83G, T84A
notes: forms a hexamer of Fc; also called Hex 2b18KQS Fc; Hex-2bKQS

binding result (FcγRIIaH131 [2]): no binding
binding result (FcγRIIIaV158 [3]): no binding
binding result (FcgRIIIbNA2 [4]): no binding
binding result (FcγRIIaR131 [9]): binds
binding result (FcγRIIb): binds
binding result (FcγRI): binds
B3: Hex 2b18K-ST (Fc fusion)
Fc-tailpiece fusion chain: B1 chain with S52D, Q77R, T248N
notes: also called Hex2b218K-ST; glycosylated hexameric construct of Fc variant 2b18K
